Like-named read-outs stand apart in the source and are kept apart here.

Data on 5 substances can be found in article PMC7083227.

For assay [1], the target named is Vγ9Vδ2 TCR (soluble, biotinylated; clone not stated for this experiment) (human). The experiment in a line: SPR; BIAcore3000; biotinylated TCRs (2000-3000 RU) captured on streptavidin-coated CM5 chips; BTN IgV domain injected as analyte, 1-200 μM; HBS-EP buffer; equilibrium affinity measurements. (In general: In SPR one partner is held on a chip, and binding of the other changes the refractive index at the surface.)

Assay [2] concerns the target BTN2A1 peptide on (human). Briefly: SPR, equilibrium affinity; biotinylated TCR captured on a streptavidin chip, BTN2A1 IgV as analyte; soluble, other.
The target in assay [3] is BTN2A1 peptide on (human). The experiment in a line: SPR, equilibrium affinity and Scatchard analysis; representative experiment of Figure 3B; soluble, other.
The target of assay [4] is Vγ9Vδ2 TCR (soluble, biotinylated; clone not stated for this experiment). Briefly: SPR. Particulars: parent: est. 1.0; read off a plot.
Assay [5] concerns the target Vγ9Vδ2 TCR (soluble, biotinylated; clone not stated for this experiment) (human). The experiment in a line: SPR; BIAcore3000; biotinylated TCRs (2000-3000 RU) captured on streptavidin-coated CM5 chips; BTN IgV domain injected as analyte, 1-200 μM; HBS-EP buffer; equilibrium affinity measurements. This is another data set of the same source.
Assay [6] concerns the target Vγ9Vδ1 TCR (soluble, biotinylated) (human). The assay is described as above.
For assay [7], the target named is MOP Vγ9Vδ2 TCR (soluble, biotinylated) (human). The description is as above.
In assay [8] the target is Vγ9Vδ1 TCR (soluble, biotinylated) (human). The assay is described as above. This is another data set of the same source.
Assay [9] concerns the target MOP Vγ9Vδ2 TCR (soluble, biotinylated) (human). Described as above. This is another data set of the same source.

With “BTN2A1 IgV K79A (from UniProt Q7KYR7 27-142) (domain or fragment)”, the dissociation constant (Kd) (commonly the equilibrium constant for the complex coming apart) in assay [1] is 100 µM.

On to Vγ9Vδ2 MOP TCR, for which the values for the Kd in [2] and in assay [3] were 49.9 µM and 48.4 µM, respectively.

Consider BTN2A1 IgV (from UniProt Q7KYR7) Y133A, for which, in assay [4], the ratio to parent was 0.8.

In the case of “BTN2A1 IgV S72A (from UniProt Q7KYR7 27-142) (domain or fragment)”, the dissociation constant (Kd) is 11 to 15 µM in assay [1] and 10 to 15 µM in assay [5].

“BTN2A1 IgV (from UniProt Q7KYR7 27-142) (domain or fragment)”: the dissociation constant Kd is 46.6 µM in [6], 49.9 µM in assay [7], 47.9 µM in assay [8] and 48.4 µM in assay [9].
